Holding throughout (assay): holdup assay
Common to all, as to parameters: key: below the threshold = too weak to quantify, mostly under pKd 3.1 to 4

Test [1] has as its target T1, GRIP1_2, Q9Y3R0.
T1 sequence (Q9Y3R0 145-248, limits assumed, looked up): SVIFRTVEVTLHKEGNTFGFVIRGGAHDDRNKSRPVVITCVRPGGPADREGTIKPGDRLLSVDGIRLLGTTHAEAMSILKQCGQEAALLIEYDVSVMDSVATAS

In test [2] the target is T2, GRIP1_3, Q9Y3R0.
T2 sequence (Q9Y3R0 247-346, limits assumed, looked up): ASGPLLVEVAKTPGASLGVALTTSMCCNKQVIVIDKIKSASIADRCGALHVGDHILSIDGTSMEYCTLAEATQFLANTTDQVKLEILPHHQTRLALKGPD

Test [3] has as its target Inadl_3, Q8NI35.
The target of test [4] is T3, LIN7C, Q9NUP9.
T3 sequence (Q9NUP9 88-185, limits assumed, looked up): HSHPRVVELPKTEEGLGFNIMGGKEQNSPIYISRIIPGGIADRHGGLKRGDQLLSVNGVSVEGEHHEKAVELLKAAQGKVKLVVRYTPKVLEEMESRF

Test [5] concerns the target DLG4_1, P78352.
Test [6] addresses T4, DFNB31_3, Q9P202.
T4 sequence (Q9P202 811-907, limits assumed, looked up): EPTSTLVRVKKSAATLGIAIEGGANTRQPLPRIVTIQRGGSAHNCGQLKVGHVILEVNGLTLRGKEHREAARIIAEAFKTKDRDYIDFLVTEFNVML

Test [7] concerns the target DLG1_1, Q12959.
Test [8] concerns the target T5, APBA2_1, Q99767.
T5 sequence (Q99767 563-664, limits assumed, looked up): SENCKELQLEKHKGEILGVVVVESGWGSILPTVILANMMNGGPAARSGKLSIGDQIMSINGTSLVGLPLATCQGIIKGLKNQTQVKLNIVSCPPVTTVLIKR

In test [9] the target is T6, RAPGEF6, Q8TEU7.
T6 sequence (Q8TEU7 525-625, limits assumed, looked up): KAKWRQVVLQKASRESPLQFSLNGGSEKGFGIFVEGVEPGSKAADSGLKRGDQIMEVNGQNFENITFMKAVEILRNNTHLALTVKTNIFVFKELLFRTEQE

Test [10] deals with DLG1_3, Q12959.
Test [11] addresses T7, APBA1_1, Q02410.
T7 sequence (Q02410 651-752, limits assumed, looked up): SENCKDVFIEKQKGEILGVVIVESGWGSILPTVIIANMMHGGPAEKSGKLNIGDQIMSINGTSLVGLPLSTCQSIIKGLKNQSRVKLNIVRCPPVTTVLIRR

Test [12] has as its target T8, SNTA1, Q13424.
T8 sequence (Q13424 82-180, limits assumed, looked up): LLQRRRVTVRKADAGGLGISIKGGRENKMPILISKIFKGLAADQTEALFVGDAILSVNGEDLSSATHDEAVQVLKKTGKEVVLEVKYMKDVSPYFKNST

Test [13] deals with T9, HTRA4, P83105.
T9 sequence (P83105 378-476, limits assumed, looked up): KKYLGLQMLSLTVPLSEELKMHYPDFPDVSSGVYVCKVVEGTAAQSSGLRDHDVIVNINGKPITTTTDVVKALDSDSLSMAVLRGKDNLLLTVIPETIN

Test [14] addresses T10, TIAM2, Q8IVF5.
T10 sequence (Q8IVF5 885-986, limits assumed, looked up): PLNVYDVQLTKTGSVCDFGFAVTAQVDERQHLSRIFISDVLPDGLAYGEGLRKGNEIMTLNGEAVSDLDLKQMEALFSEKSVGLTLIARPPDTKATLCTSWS

Test [15] concerns the target MAGI2_5, Q86UL8.
Test [16] addresses T11, SYNJ2BP, P57105.
T11 sequence (P57105 8-110, limits assumed, looked up): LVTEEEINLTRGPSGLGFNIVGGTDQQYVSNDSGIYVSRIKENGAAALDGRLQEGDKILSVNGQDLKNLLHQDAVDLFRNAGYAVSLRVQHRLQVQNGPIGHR

Test [17] concerns the target Inadl_9, Q8NI35.
Test [18] concerns the target T12, TX1BP3, O14907.
T12 sequence (O14907 10-122, limits assumed, looked up): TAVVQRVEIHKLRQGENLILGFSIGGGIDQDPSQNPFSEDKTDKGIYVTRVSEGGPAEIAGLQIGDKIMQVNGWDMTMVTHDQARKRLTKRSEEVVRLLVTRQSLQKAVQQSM

The target in test [19] is MAGI1_2, Q96QZ7.
The target of test [20] is T13, APBA2_2, Q99767.
T13 sequence (Q99767 654-744, limits assumed, looked up): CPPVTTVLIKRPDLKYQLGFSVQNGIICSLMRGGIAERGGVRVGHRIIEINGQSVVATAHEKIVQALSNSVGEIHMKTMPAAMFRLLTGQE

Test [21] addresses Inadl_4, Q8NI35.
The target of test [22] is T14, PDZD7_3, Q9H5P4.
T14 sequence (Q9H5P4 857-944, limits assumed, looked up): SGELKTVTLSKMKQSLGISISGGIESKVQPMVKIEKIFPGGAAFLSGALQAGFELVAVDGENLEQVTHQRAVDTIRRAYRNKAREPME

The mark [23] stands for this setting: plain residues with an end cap or a label only (N-terminal biotin on a linker: ttds).
[24] abbreviates: plain residues with an end cap or a label only (N-terminal biotin on a linker: ahx).

The values below come from paper PMC9482650, “Quantitative fragmentomics allow affinity mapping of interactomes” (Nature Communications, 2022).

Chain of MAGI1_2, Q96QZ7 (Q96QZ7 456-580): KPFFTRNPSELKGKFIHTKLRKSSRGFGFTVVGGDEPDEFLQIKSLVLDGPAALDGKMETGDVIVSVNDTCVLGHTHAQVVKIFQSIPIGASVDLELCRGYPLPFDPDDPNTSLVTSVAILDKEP
Chain of Inadl_3, Q8NI35 (Q8NI35 359-469): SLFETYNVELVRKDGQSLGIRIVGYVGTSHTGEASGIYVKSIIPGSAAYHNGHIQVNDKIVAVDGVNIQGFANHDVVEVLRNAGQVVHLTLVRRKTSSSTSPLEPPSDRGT
Chain of MAGI2_5, Q86UL8 (Q86UL8 915-1017): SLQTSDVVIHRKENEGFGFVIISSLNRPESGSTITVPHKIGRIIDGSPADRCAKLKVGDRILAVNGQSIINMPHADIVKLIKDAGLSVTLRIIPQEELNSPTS
Chain of Inadl_9, Q8NI35 (Q8NI35 1530-1615): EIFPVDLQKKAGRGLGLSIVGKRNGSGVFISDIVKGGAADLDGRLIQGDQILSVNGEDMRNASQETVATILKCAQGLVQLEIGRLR
Chain of DLG4_1, P78352 (P78352 62-152): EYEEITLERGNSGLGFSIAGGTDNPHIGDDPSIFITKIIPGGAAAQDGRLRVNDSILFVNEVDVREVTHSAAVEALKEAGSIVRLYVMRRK
Chain of Inadl_4, Q8NI35 (Q8NI35 547-651): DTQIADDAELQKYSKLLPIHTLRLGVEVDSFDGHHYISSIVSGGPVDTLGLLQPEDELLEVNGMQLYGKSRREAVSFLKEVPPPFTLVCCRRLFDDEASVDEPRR

For orientation: pKd means the negative decadic logarithm of the Kd, by convention in mol/L. RLQRRRETQV [HPV18-E6, P06463]: the pKd entry in test [1] (setting [23]) is “below the threshold”; in test [2] (setting [23]) it was “below the threshold”; in test [3] (setting [23]) it was “below the threshold”; in [4] (setting [23]), 4.17; in test [5] (setting [23]), 5.11; in test [6] (setting [23]), “below the threshold”. Also, the pKd is 5.26 in [7] (setting [23]); “below the threshold” in test [8] (setting [23]); “below the threshold” in test [9] (setting [23]); 5.02 in test [10] (setting [23]); “below the threshold” in [11] (setting [23]); 4.7 in test [12] (setting [23]). In addition, the pKd result in [13] (setting [23]) was “below the threshold”; in test [14] (setting [23]), “below the threshold”; in test [15] (setting [23]) it was 3.78; in [16] (setting [23]) it was 5.35; in test [17] (setting [23]), “below the threshold”; in test [18] (setting [23]) it was 4.67. Further, the pKd is 5.97 in test [19] (setting [23]), “below the threshold” in [20] (setting [23]), “below the threshold” in test [21] (setting [23]) and 3.98 in test [22] (setting [23]).

As for SSLQSLETSV [ATP2B4, P23634], the pKd in [1] (setting [23]) is 3.58; in test [2] (setting [23]) it was “below the threshold”; in [3] (setting [23]) it was 3.56; in [4] (setting [23]), 4.8; in test [5] (setting [23]), 4.78; in [6] (setting [23]) it was “below the threshold”. Besides, the pKd is 5 in [7] (setting [23]); “below the threshold” in [8] (setting [23]); 3.72 in test [9] (setting [23]); 4.86 in test [10] (setting [23]); “below the threshold” in test [11] (setting [23]); 4.91 in test [12] (setting [23]). The pKd in [13] (setting [23]) is 3.6; in test [14] (setting [23]), “below the threshold”; in test [15] (setting [23]), 4.6; in test [16] (setting [23]), 5.66; in test [17] (setting [23]) it was “below the threshold”; in [18] (setting [23]), 4.62. The pKd was 3.68 in test [19] (setting [23]), 3.59 in [20] (setting [23]), “below the threshold” in test [21] (setting [23]) and 4.48 in test [22] (setting [23]).

Take GYDWGPATDL [TJP3, O95049]: the negative logarithm of the Kd (pKd) entry was “below the threshold” in test [1] (setting [24]); “below the threshold” in test [2] (setting [24]); 3.72 in test [3] (setting [24]); 3.71 in test [4] (setting [24]); 3.53 in test [5] (setting [24]); “below the threshold” in [6] (setting [24]). In addition, the pKd result is “below the threshold” in [7] (setting [24]); “below the threshold” in test [8] (setting [24]); “below the threshold” in test [9] (setting [24]); “below the threshold” in test [10] (setting [24]); “below the threshold” in test [11] (setting [24]); 4.07 in [12] (setting [24]). Further, the pKd result in test [13] (setting [24]) is “below the threshold”; in [14] (setting [24]), “below the threshold”; in test [15] (setting [24]), “below the threshold”; in test [16] (setting [24]), “below the threshold”; in test [17] (setting [24]), 3.6; in [18] (setting [24]) it was 4.39. The pKd entry in test [19] (setting [24]) is “below the threshold”; in test [20] (setting [24]) it was “below the threshold”; in [21] (setting [24]) it was “below the threshold”; in [22] (setting [24]), 4.14.

Consider RLPKIKETTV [FRMPD4, Q14CM0], for which the pKd result in test [1] (setting [23]) is “below the threshold”; in test [2] (setting [23]), “below the threshold”; in test [3] (setting [23]) it was “below the threshold”; in test [4] (setting [23]) it was 5.29; in [5] (setting [23]), 5.05; in [6] (setting [23]) it was “below the threshold”. Besides, the pKd in test [7] (setting [23]) was 5.12; in test [8] (setting [23]) it was “below the threshold”; in test [9] (setting [23]), “below the threshold”; in [10] (setting [23]), 5.3; in test [11] (setting [23]), “below the threshold”; in test [12] (setting [23]), 6.66. Further, the pKd result is “below the threshold” in test [13] (setting [23]); “below the threshold” in test [14] (setting [23]); 3.9 in test [15] (setting [23]); 5.47 in [16] (setting [23]); 3.48 in [17] (setting [23]); 4.57 in [18] (setting [23]). In addition, the pKd in test [19] (setting [23]) is 4.49; in test [20] (setting [23]), “below the threshold”; in test [21] (setting [23]) it was “below the threshold”; in test [22] (setting [23]), 5.01.

As to RHTTSTETAV [HPV30-E6, P36809], the pKd in test [1] (setting [23]) is 3.78; in test [2] (setting [23]), “below the threshold”; in test [3] (setting [23]) it was 3.77; in test [4] (setting [23]), 4.19; in [5] (setting [23]) it was 4.92; in test [6] (setting [23]), “below the threshold”. Besides, the pKd in test [7] (setting [23]) is 4.93; in [8] (setting [23]), “below the threshold”; in [9] (setting [23]) it was “below the threshold”; in [10] (setting [23]), 4.39; in test [11] (setting [23]) it was “below the threshold”; in [12] (setting [23]) it was 4.72. The pKd entry in [13] (setting [23]) is “below the threshold”; in [14] (setting [23]) it was “below the threshold”; in test [15] (setting [23]), 4.31; in [16] (setting [23]), 5.36; in test [17] (setting [23]), “below the threshold”; in test [18] (setting [23]), 4.65. Further, the pKd in test [19] (setting [23]) was 4.39; in test [20] (setting [23]), “below the threshold”; in test [21] (setting [23]), “below the threshold”; in [22] (setting [23]) it was 4.1.
